Data as given in patent US20150307617A1.

Assays:
[1] = target: human OX40 expressed on transfected BT-474 cells (fusion with 5' HSV glycoprotein D tag) (human) (UniProt P43489); experiment: flow cytometry, ACT35-PE staining of the BT474-human OX40 low clone
[2] = target: human OX40 expressed on transfected BT-474 cells (fusion with 5' HSV glycoprotein D tag) (human) (UniProt P43489); experiment: flow cytometry, ACT35-PE staining of the BT474-human OX40-high clone

human OX40 expressed on transfected BT-474 cells (fusion with 5' HSV glycoprotein D tag) (human), sequence (P43489 29-277): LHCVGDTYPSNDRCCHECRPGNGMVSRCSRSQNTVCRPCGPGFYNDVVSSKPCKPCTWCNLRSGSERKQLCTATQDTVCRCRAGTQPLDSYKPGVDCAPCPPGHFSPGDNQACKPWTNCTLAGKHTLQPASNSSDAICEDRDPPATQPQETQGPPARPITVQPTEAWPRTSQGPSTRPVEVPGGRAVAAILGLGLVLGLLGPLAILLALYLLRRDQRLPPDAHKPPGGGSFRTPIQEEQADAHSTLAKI

anti-human OX40 (PE) (clone ACT35) (antibody)
MFI [1]: 994 MFI
MFI [2]: 5240 MFI
